Patent US20140113288
Where a chain is given by its changes, count along the chain named.

B1: HtrA4-FLAG (protein)
chain: EKLHTQPSCPAVCQPTRCPALPTCALGTTPVFDLCRCCRVCPAAEREVCGGAQGQPCAPGLQCLQPLRPGFPSTCGCPTLGGAVCGSDRRTYPSMCALRAENRAARRLGKVPAVPVQWGNCGDTGTRSAGPLRRNYNFIAAVVEKVAPSVVHVQLWGRLLHGSRLVPVYSGSGFIVSEDGLIITNAHVVRNQQWIEVVLQNGARYEAVVKDIDLKLDLAVIKIESNAELPVLMLGRSSDLRAGEFVVALGSPFSLQNTATAGIVSTKQRGGKELGMKDSDMDYVQIDATINYGNSGGPLVNLDGDVIGVNSLRVTDGISFAIPSDRVRQFLAEYHEHQMKGKAFSNKKYLGLQMLSLTVPLSEELKMHYPDFPDVSSGVYVCKVVEGTAAQSSGLRDHDVIVNINGKPITTTTDVVKALDSDSLSMAVLRGKDNLLLTVIPETIN
B2: HtrA4mt-FLAG (protein)
chain: B1 chain with S295A

Tests used:
[1] = biological target: fibronectin
[2] = biological target: syncytin-1-HA, Q9UQF0
Sequence of syncytin-1-HA, Q9UQF0 (Q9UQF0 21-538): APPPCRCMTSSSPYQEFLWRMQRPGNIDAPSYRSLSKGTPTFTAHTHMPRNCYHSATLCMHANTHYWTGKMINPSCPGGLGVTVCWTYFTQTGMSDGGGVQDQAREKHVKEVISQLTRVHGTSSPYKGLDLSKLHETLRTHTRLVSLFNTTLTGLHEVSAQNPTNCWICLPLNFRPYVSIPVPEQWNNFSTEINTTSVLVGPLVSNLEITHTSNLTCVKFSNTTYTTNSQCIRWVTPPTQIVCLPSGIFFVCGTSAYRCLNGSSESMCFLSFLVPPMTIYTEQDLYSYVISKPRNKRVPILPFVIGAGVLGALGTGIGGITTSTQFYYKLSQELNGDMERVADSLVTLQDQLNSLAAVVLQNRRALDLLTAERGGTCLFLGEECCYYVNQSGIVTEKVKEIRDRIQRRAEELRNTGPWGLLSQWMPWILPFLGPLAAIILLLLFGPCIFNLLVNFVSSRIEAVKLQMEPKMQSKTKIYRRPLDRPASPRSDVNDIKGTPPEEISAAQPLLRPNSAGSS

Protein | cleavage of fibronectin (immunoblotting with anti-fibronectin Ab) [1] | protein level of surface syncytin-1-HA TM subunit (biotinylation, streptavidin pull-down, HA mAb) [2]
B1 | cleavage of fibronectin by HtrA4-FLAG, but not HtrA4mt-FLAG, was observed in a dose-dependent manner | the protein level of the TM subunit of syncytin-1-HA decreased in the presence of HtrA4-FLAG, but not HtrA4mt-FLAG
B2 | cleavage of fibronectin by HtrA4-FLAG, but not HtrA4mt-FLAG, was observed in a dose-dependent manner | the protein level of the TM subunit of syncytin-1-HA decreased in the presence of HtrA4-FLAG, but not HtrA4mt-FLAG
